Values of other authors as cited in publication PMC4023866.

Biological target: GAPDH (Homo sapiens) (UniProt P04406)

For NleB (from UniProt B7UI21), the Kd is listed as 36 µM.
